Results published in patent US7192728B2, “Screening assays for agents that alter inhibitor of apoptosis (IAP) protein regulation of caspase activity” (The Burnham Institute, priority 1997, dated 2007).

How the values were obtained:
[1] = test system: pro-caspase-3 processing induced by cytochrome c; assay: Cytochrome c-induced processing of pro-caspase-3 in 293 cytosolic extracts; type: biochemical, human; conditions: immunoblot
Procedure: Samples were incubated at 30° C. for 30 minutes. Extracts were then separated by SDS-PAGE electrophoresis, transferred to nitrocellulose and incubated with antisera specific for the zymogen and large subunit of caspase-3.
Briefly, cells were washed with ice-cold buffer A (20 mM Hepes [pH 7.5], 10 mM KCl, 1.5 mM MgCl2, 1 mM EDTA, and 1 mM DTT) and suspended in 1 volume of buffer A. Cells were incubated on ice for 20 minutes and then disrupted by passage through a 26 gauge needle 15 times. Cell extracts were clarified by centrifugation at 16,000×g for 30 minutes and the resulting supernatants were stored at −80° C. For initiating caspase activation, either 10 μM horse heart cytochrome c (Sigma, Inc.) together with 1 mM dATP, or 100 nM of purified recombinant caspase-8, was added to extracts (10–15 mg total protein/ml).

caspase-6 [2] = target: T1, caspase-6 (Homo sapiens, UniProt P55212); assay: Inhibition of purified recombinant caspase-6, DEVD substrate hydrolysis; type: biochemical
T1 construct: Purified active caspase concentrations ranged from 0.1 nM to 10 nM; His6; made in house; host or cells: E. coli BL21(DE3)pLysS
T1 sequence (P55212 24-179 limits assumed): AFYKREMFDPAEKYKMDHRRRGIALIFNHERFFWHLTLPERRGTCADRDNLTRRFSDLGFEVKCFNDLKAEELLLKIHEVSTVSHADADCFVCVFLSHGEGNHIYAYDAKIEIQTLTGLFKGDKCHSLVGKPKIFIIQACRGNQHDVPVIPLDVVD
T1 sequence (P55212 194-293 limits assumed): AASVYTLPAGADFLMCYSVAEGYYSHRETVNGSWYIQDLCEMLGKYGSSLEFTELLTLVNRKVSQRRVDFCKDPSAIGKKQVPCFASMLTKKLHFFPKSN
Procedure: (§1) Purified recombinant caspase-1, caspase-3, caspase-6, caspase-7 or caspase-8 were incubated with DEVD-pNA, either alone or with a 10-fold to 50-fold molar excess of GST-XIAP ([…]) and substrate hydrolysis was measured. Purified active caspase concentrations ranged from 0.1 nM to 10 nM. XIAP concentration ranged from 0.1 nM to 500 nM. Assays were performed in caspase buffer (50 mM Tris, pH 7.4, 100 mM NaCl, 10% sucrose, 5–10 mM DTT, 1 mM EDTA and 0.1% CHAPS).
(§2) Equilibria were determined from progress curves when substrate hydrolysis reached a steady-state; slopes were calculated by curve fit analysis using the cricket graph program. Experiments were performed using purified recombinant caspase-3, caspase-6, or caspase-7. DEVD-AFC hydrolysis was measured using 0.1 nM caspase and a range of concentrations (0.2 to 12 μM) of recombinant XIAP (rXIAP). […] Average ratio velocities (vi/vo, where “vi” indicates presence of GST-XIAP and “vo” indicates absence of GST-XIAP) were determined.

caspase-8 = target: T2, caspase-8 (Homo sapiens, UniProt Q14790); assay: Inhibition of purified recombinant caspase-8, DEVD substrate hydrolysis; type: biochemical
T2 construct: a cDNA encoding the catalytic subunit of caspase-8 (Ser 217 to the C-terminus); His6; made in house; host or cells: E. coli BL21(DE3)pLysS
T2 sequence (Q14790 217-374 limits assumed): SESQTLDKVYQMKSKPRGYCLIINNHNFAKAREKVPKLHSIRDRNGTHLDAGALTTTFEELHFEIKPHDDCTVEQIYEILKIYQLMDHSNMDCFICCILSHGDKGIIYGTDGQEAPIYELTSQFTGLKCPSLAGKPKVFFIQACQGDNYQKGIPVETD
T2 sequence (Q14790 385-479 limits assumed): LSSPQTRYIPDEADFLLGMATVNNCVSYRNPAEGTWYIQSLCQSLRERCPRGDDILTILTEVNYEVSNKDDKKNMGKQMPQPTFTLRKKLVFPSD
Procedure: as §1, §2

caspase-6 [3] = target: T1, caspase-6; assay: GST pull-down binding to caspase-6; conditions: glutathione-Sepharose beads, immunoblot
caspase-1 = target: T3, caspase-1 (Homo sapiens, UniProt P29466); assay: Inhibition of purified recombinant caspase-1, substrate hydrolysis; type: biochemical; conditions: 50-fold molar excess
T3 construct: Purified active caspase concentrations ranged from 0.1 nM to 10 nM; made in house
T3 sequence (P29466 120-297 limits assumed): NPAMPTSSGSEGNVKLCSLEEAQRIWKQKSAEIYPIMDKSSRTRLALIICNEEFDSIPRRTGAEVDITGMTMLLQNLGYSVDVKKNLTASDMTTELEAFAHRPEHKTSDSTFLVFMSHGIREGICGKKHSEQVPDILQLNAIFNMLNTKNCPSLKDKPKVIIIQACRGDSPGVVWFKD
T3 sequence (P29466 317-404 limits assumed): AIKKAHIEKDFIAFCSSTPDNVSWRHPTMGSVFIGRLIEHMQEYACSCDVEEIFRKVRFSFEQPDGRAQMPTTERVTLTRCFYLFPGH
Procedure: as §1

[4] = test system: HeLa cell nuclei in cytosolic extract; assay: Apoptosis of isolated nuclei in cell-free system (cytochrome c/dATP); conditions: 0.4 μM protein with 10 μM cytochrome c and 1 mM dATP; 37° C., 60 min; baseline about 15%, cytochrome c/dATP alone >95%
Procedure: Cells were washed with ice cold buffer A (20 mM Hepes (pH 7.5), 10 mM KCl, 1.5 mM MgCl2, 1 mM EDTA, 1 mM DTT and 0.1 mM PMSF) and suspended in 1 vol buffer A, then incubated on ice for 20 min. 293 cells were disrupted by passage 15× through a 26 gauge needle and Jurkat T cells were disrupted by dounce homogenization in 2 ml using 15 strokes with a pestle B. Cell extracts (10–15 mg total protein/ml) were clarified by centrifugation at 16,000×g for 30 min, then the NaCl concentration was increased by 50 mM. Cytosolic fractions were used immediately or stored frozen at −80° C.
Isolated nuclei were prepared from HeLa cells (Martin et al., supra, 1995). Approximately 5×10^4 to 1×10^5 nuclei were added to 20 μl cytosolic extract and apoptosis was initiated by adding 10 μM horse heart cytochrome c (Sigma, Inc.; St. Louis Mo.) and 1 mM dATP, alone (positive control) or with cytochrome c, dATP and either 0.4 μM GST-XIAP or 0.4 μM GST-Bcl-2. Following incubation at 37° C. for 60 min., nuclei were stained with 1 μg/ml of acridine orange and ethidium bromide and the percentage nuclei with apoptotic features, including extremely condensed chromatin and the genesis of fragmentation of nuclei, was determined.

[5] = DEVD-AFC hydrolysis with/without GST-XIAP

- concentration that effectively abolished cytochrome c-induced processing of pro-caspase-3 [1]: 0.1 to 0.2 µM
- interference with substrate cleavage by caspase-6 (caspase-6 [2]; 50-fold molar excess): did not interfere
- average ratio velocity (vi/vo), caspase-6 (caspase-6 [2]; [5]): about 1.0
- interference with substrate cleavage by caspase-8 (caspase-8; 50-fold molar excess): did not interfere
- average ratio velocity (vi/vo), caspase-8 (caspase-8; [5]): about 1.0
- binding of caspase-6 (in words) (caspase-6 [3]): not caspase-6
- interference with substrate cleavage by caspase-1 (caspase-1): did not interfere
Substance: XIAP: X chromosome linked inhibitor of apoptosis protein (Genbank U32974), used mostly as recombinant GST fusion or expressed from plasmid
- apoptotic nuclei [4]: about 15%
